Source: publication PMC6040593 (Molecular cell, 2017)

How the values were obtained:
[1] = target: T1, soluble region of S. cerevisiae Msp1 (Δ1-32), wild type (S. cerevisiae), P28737; experiment: SEC + SEC-MALS; settings: remark: other sources report otherwise
T1 chain: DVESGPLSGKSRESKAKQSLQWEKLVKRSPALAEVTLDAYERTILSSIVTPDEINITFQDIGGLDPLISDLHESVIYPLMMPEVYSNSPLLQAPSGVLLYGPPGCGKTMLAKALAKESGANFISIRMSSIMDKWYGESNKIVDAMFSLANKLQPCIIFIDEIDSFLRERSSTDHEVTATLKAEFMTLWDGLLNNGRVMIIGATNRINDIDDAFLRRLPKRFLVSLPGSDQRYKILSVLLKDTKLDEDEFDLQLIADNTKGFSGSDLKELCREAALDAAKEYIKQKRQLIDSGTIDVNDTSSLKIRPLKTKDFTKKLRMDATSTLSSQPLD

[2] = target: T1, soluble region of S. cerevisiae Msp1 …; experiment: SEC + SEC-MALS; settings: remark: other sources report otherwise
[3] = target: the molecule itself; experiment: SEC
[4] = target: the molecule itself; experiment: SEC + SEC-MALS

B1: soluble region of S. cerevisiae Msp1 (Δ1-32), wild type, P28737 33-362 (domain or fragment)
chain: DVESGPLSGKSRESKAKQSLQWEKLVKRSPALAEVTLDAYERTILSSIVTPDEINITFQDIGGLDPLISDLHESVIYPLMMPEVYSNSPLLQAPSGVLLYGPPGCGKTMLAKALAKESGANFISIRMSSIMDKWYGESNKIVDAMFSLANKLQPCIIFIDEIDSFLRERSSTDHEVTATLKAEFMTLWDGLLNNGRVMIIGATNRINDIDDAFLRRLPKRFLVSLPGSDQRYKILSVLLKDTKLDEDEFDLQLIADNTKGFSGSDLKELCREAALDAAKEYIKQKRQLIDSGTIDVNDTSSLKIRPLKTKDFTKKLRMDATSTLSSQPLD
[1]
  stoichiometry N: 6
[2]
  stoichiometry N: 2

B2: soluble (Δ1-32) S. cerevisiae Msp1 E193Q H206A/E207A (domain or fragment, UniProt P28737 33-362, looked up)
chain: DVESGPLSGKSRESKAKQSLQWEKLVKRSPALAEVTLDAYERTILSSIVTPDEINITFQDIGGLDPLISDLHESVIYPLMMPEVYSNSPLLQAPSGVLLYGPPGCGKTMLAKALAKESGANFISIRMSSIMDKWYGESNKIVDAMFSLANKLQPCIIFIDQIDSFLRERSSTDAAVTATLKAEFMTLWDGLLNNGRVMIIGATNRINDIDDAFLRRLPKRFLVSLPGSDQRYKILSVLLKDTKLDEDEFDLQLIADNTKGFSGSDLKELCREAALDAAKEYIKQKRQLIDSGTIDVNDTSSLKIRPLKTKDFTKKLRMDATSTLSSQPLD
[3]
  stoichiometry N: 6

B3: soluble (Δ1-32) S. cerevisiae Msp1 E193Q (domain or fragment, UniProt P28737 33-362, looked up)
chain: DVESGPLSGKSRESKAKQSLQWEKLVKRSPALAEVTLDAYERTILSSIVTPDEINITFQDIGGLDPLISDLHESVIYPLMMPEVYSNSPLLQAPSGVLLYGPPGCGKTMLAKALAKESGANFISIRMSSIMDKWYGESNKIVDAMFSLANKLQPCIIFIDQIDSFLRERSSTDHEVTATLKAEFMTLWDGLLNNGRVMIIGATNRINDIDDAFLRRLPKRFLVSLPGSDQRYKILSVLLKDTKLDEDEFDLQLIADNTKGFSGSDLKELCREAALDAAKEYIKQKRQLIDSGTIDVNDTSSLKIRPLKTKDFTKKLRMDATSTLSSQPLD
[4]
  stoichiometry N: 6

B4: soluble (Δ1-32) S. cerevisiae Msp1 E193Q W166A/Y167A (domain or fragment, UniProt P28737 33-362, looked up)
chain: DVESGPLSGKSRESKAKQSLQWEKLVKRSPALAEVTLDAYERTILSSIVTPDEINITFQDIGGLDPLISDLHESVIYPLMMPEVYSNSPLLQAPSGVLLYGPPGCGKTMLAKALAKESGANFISIRMSSIMDKAAGESNKIVDAMFSLANKLQPCIIFIDQIDSFLRERSSTDHEVTATLKAEFMTLWDGLLNNGRVMIIGATNRINDIDDAFLRRLPKRFLVSLPGSDQRYKILSVLLKDTKLDEDEFDLQLIADNTKGFSGSDLKELCREAALDAAKEYIKQKRQLIDSGTIDVNDTSSLKIRPLKTKDFTKKLRMDATSTLSSQPLD
[3]
  stoichiometry N: 6
